This note sets out measurements from publication PMC3190825.

What all share (assay): SPR
For orientation: SPR reads the build-up and loss of mass on a sensor chip optically.

The target of experiment [1] is IgABR tandem construct of protein β (group B Streptococcus).
For experiment [2], the target named is Recombinant B6N fragment of protein β (single copy) (group B Streptococcus).
Experiment [3] addresses B6N tandem construct of protein β (group B Streptococcus).

Take Purified human IgA (natural protein): the Kd (in general, the equilibrium constant for the complex coming apart) in experiment [1] came out at 61 nM. Consider “Recombinant hSiglec-5-Fc chimera (from UniProt O15389 17-441) (Fc fusion)”, for which, in experiment [2], the Kd came out at 14 nM.

B1: Recombinant hSiglec-5-Fc chimera (Fc fusion)
chain: EKPVYELQVQKSVTVQEGLCVLVPCSFSYPWRSWYSSPPLYVYWFRDGEIPYYAEVVATNNPDRRVKPETQGRFRLLGDVQKKNCSLSIGDARMEDTGSYFFRVERGRDVKYSYQQNKLNLEVTALIEKPDIHFLEPLESGRPTRLSCSLPGSCEAGPPLTFSWTGNALSPLDPETTRSSELTLTPRPEDHGTNLTCQMKRQGAQVTTERTVQLNVSYAPQTITIFRNGIALEILQNTSYLPVLEGQALRLLCDAPSNPPAHLSWFQGSPALNATPISNTGILELRRVRSAEEGGFTCRAQHPLGFLQIFLNLSVYSLPQLLGPSCSWEAEGLHCRCSFRARPAPSLCWRLEEKPLEGNSSQGSFKVNSSSAGPWANSSLILHGGLSSDLKVSCKAWNIYGSQSGSVLLLQGRSNLGTGVVPAAL
modifications: 125I (chloramine-T method) in the assays with radiolabeled hSiglec-5
Turning to B1, the Kd in experiment [3] was found to be 3.5 nM.
